Data on two substances can be found in article PMC7392888.

This series concerns O=C(Cc1cccs1)N[C@@H]1C(=O)N2C(C(=O)O)=C(/C=C/c3ccc([N+](=O)[O-])cc3[N+](=O)[O-])CS[C@H]12. In words: purified protein. Conditions: Zn2+ enzyme; steady-state buffer and pH not given here; King-Altman value from pre-steady-state data listed separately.

As a reminder, the Km is the substrate concentration at which the rate is half of its maximum. Broadly, the kcat is the number of substrate molecules converted per active site and unit of time at saturation. On to “MIM-1 (Novosphingobium pentaromativorans US6-1)”, for which the Km is given as 41 ± 10 µM and the catalytic constant (kcat) came to 17 ± 4 s⁻¹.

On to “SAM-1 (Simiduia agarivorans SA1 = DSM 21679)”, for which the Michaelis-Menten constant (Km) came to 20 ± 3 µM and the kcat amounted to 10 ± 5 s⁻¹.
